PMC10786919, “Design-rules for stapled peptides with in vivo activity and their application to Mdm2/X antagonists” (Nature Communications, 2024)
pKd: −log10 of the molar value.

The substances below were run against human Mdm2 1-125 (human) (assay: fluorescence polarisation; competitive fluorescence anisotropy: unlabelled peptide titrated against 250 nM Mdm2 (1-125) with 50 nM FAM-labelled 12/1 peptide (FAM-…-NH2); PBS pH 7.4, 0.001% Tween-20; apparent Kd, geometric means). Settings: not given.
Sequence of human Mdm2 1-125 (human) (Q00987 1-125): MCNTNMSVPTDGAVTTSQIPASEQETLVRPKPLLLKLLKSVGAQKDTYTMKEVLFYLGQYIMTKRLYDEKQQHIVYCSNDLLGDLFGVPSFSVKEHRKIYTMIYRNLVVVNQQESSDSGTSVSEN

Substance	pKd
AZIDE-ATSP-7041 (L1A,Q9A) (peptide)	7.67
AZIDE-ATSP-7041 (E5A,S12A) (peptide)	7.51
AZIDE-ATSP-7041 (T2A,Q9A) (peptide)	7.10
AZIDE-ATSP-7041 (E5L, A8L) (peptide)	7.44
AZIDE-ATSP-7041 (L1A, E5A, Q9A) (peptide)	7.02
AZIDE-ATSP-7041 (E5A,Q9A) (peptide)	7.42
AZIDE-ATSP-7041 (E5A) (peptide)	7.31
AZIDE-ATSP-7041 (Q9A,S12A) (peptide)	7.34
AZIDE-ATSP-7041 (L1A,S12A) (peptide)	7.79
AZIDE-ATSP-7041 (T2A,E5A) (peptide)	6.56
AZIDE-ATSP-7041 (T2A,S12A) (peptide)	7.43
AZIDE-ATSP-7041 (L1A,E5A) (peptide)	7.38
AZIDE-KK-ATSP-7041 (L1A,T2A,E5A,Q9A,S12A) (peptide)	6.81
AZIDE-ATSP-7041 (L1A,T2A) (peptide)	7.58

The substances below were run against human Mdm2 (1-125) (assay: fluorescence anisotropy competition assay (FAM-12/1 tracer)). Settings: tested in duplicate; parent MP-081 KD = 5 nM.

Substance	ratio to parent
azide-ATSP-7041 (MP-081) W7(TFm-F) (TFm-F = trifluoromethyl-Phe)	> 2 x stronger
azide-ATSP-7041 (MP-081) S12a (a = D-alanine)	< 2 x (within)
azide-ATSP-7041 (MP-081) L1E	< 2 x (within)
azide-ATSP-7041 (MP-081) L1H	< 2 x (within)
azide-ATSP-7041 (MP-081) A14hR (hR = homo-arginine)	< 2 x (within)
azide-ATSP-7041 (MP-081) W7(DC-F) (DC-F = 3,4-Dichloro-Phe)	< 2 x (within)
azide-ATSP-7041 (MP-081) A8W	< 2 x (within)
azide-ATSP-7041 (MP-081) Q9K	< 2 x (within)
azide-ATSP-7041 (MP-081) Q9H	< 2 x (within)
azide-ATSP-7041 (MP-081) A14E	> 2 x stronger
azide-ATSP-7041 (MP-081) W7(6F-1-W) (6F-1-W = 6-Fluoro-1-Trp)	> 2 x stronger
azide-ATSP-7041 (MP-081) A8E	< 2 x (within)
azide-ATSP-7041 (MP-081) S12hR (hR = homo-arginine)	< 2 x (within)
azide-ATSP-7041 (MP-081) A13a (a = D-alanine)	< 2 x (within)
azide-ATSP-7041 (MP-081) S12H	< 2 x (within)
azide-ATSP-7041 (MP-081) S12E	> 2 x stronger
azide-ATSP-7041 (MP-081) T2K	< 2 x (within)
azide-ATSP-7041 (MP-081) T2hR (hR = homo-arginine)	< 2 x (within)

What follows are substances tested against human Mdm2 1-125 (human) (assay: fluorescence polarisation). Settings: not given.

Substance	pKd
AZIDE-ATSP-7041 (A8 TO D-ALA) (peptide)	7.18
AZIDE-ATSP-7041 (S12A) (peptide)	7.44
AZIDE-ATSP-7041 (W7 TO 6-FLURO-1-TRP) (peptide)	9.00

The substances below were run against human Mdm2 (1-125) (human) (assay: fluorescence polarisation). Settings: not given.
Sequence of human Mdm2 (1-125) (human) (Q00987 1-125): as above

Substance	pKd
azide-ATSP-7041 (MP-081) (peptide)	8.30

What follows are substances tested against human Mdm2 (1-125) (human) (assay: fluorescence polarisation; competitive fluorescence anisotropy: 250 nM Mdm2 (1-125) with 50 nM FAM-labeled 12/1 peptide, competing peptide titrated; apparent Kd from the fit with Kd1 = […]; PBS pH 7.4, 0.001% Tween-20; geometric means). Settings: not given.

Substance	pKd
azide-ATSP-7041 (L1D, E5D, A8D) (MP-495) (peptide)	8.30
azide-ATSP-7041 with Cba10 substituted by Ala (peptide)	6.94
azide-ATSP-7041 with Cba10 substituted by Leu (peptide)	7.25
azide-ATSP-7041 (E5P) (peptide)	5.11
ALRN-6924 (Sulanemadlin, MP-4897) (peptide)	8.60
azide-ATSP-7041 (L1N, E5N, A8N, S12N, A13N, A14N) (MP-359) (peptide)	7.82

Biological target: human Mdm2 (1-125) (human)
Test: as above
Settings: not given
Remark: another data set of the same source

Substance	pKd
ALRN-6924 (Sulanemadlin, MP-4897) (peptide)	8.61

Biological target: human Mdm2 1-125 (human)
Test: fluorescence polarisation; competitive fluorescence anisotropy: unlabelled peptide titrated against 250 nM Mdm2 (1-125) with 50 nM FAM-labelled 12/1 peptide (FAM-…-NH2); PBS pH 7.4, 0.001% Tween-20; apparent Kd, geometric means
Settings: not given
Remark: another data set of the same source

Substance	pKd
AZIDE-ATSP-7041 (W7 TO TRIFLUOROMETHYL-PHE) (peptide)	9.00
AZIDE-ATSP-7041 (A8W) (peptide)	8.07
AZIDE-ATSP-7041 (S12P) (peptide)	7.30
AZIDE-ATSP-7041 (Q9G) (peptide)	7.72
AZIDE-ATSP-7041 (L1R, A8R, A13R) (peptide)	8.04
AZIDE-ATSP-7041 (Q9P) (peptide)	7.34
AZIDE-ATSP-7041 (L1R, Y6F, L9R) (peptide)	6.93
AZIDE-ATSP-7041 (Q9A) (peptide)	7.27
AZIDE-ATSP-7041 (Q9W) (peptide)	7.07
AZIDE-ATSP-7041(A13E) (peptide)	7.85
AZIDE-ATSP-7041 (S12G) (peptide)	7.91
AZIDE-ATSP-7041 (A14E) (peptide)	9.15
AZIDE-ATSP-7041 (Q9 TO D-ALA) (peptide)	7.73
AZIDE-ATSP-7041 (E5A) (peptide)	7.32
AZIDE-ATSP-7041 (E5W) (peptide)	7.01
AZIDE-ATSP-7041 (E5P) (peptide)	5.11
AZIDE-ATSP-7041 (L1P) (peptide)	7.65
AZIDE-ATSP-7041 (E5G) (peptide)	7.17

Substance	pKd
AZIDE-ATSP-7041 (L1R, Q9R, S12K) (peptide)	7.19
AZIDE-ATSP-7041 (L1W) (peptide)	7.78
AZIDE-ATSP-7041(W7A) (peptide)	5.34
AZIDE-ATSP-7041 (E5 TO D-ALA) (peptide)	7.94
AZIDE-ATSP-7041 (L1G) (peptide)	8.02
NH2-EEE-AZIDE-SGS-PM2-EEE (peptide)	8.62
AZIDE-ATSP-7041 (L1 TO D-ALA) (peptide)	8.10
AZIDE-ATSP-7041 (S12E) (peptide)	9.14
AZIDE-ATSP-7041 (L1Y, E5Y, A8Y) (peptide)	6.43
AZIDE-ATSP-7041 (T2 TO D-ALA) (peptide)	7.15
AZIDE-ATSP-7041 (T2V) (peptide)	7.15
AZIDE-ATSP-7041 (Y6F) (peptide)	8.48
AZIDE-ATSP-7041 (T2W) (peptide)	6.69
AZIDE-ATSP-7041 (L1A, E5A, Q9A, S12A) (peptide)	7.27
AZIDE-ATSP-7041 (CBA10 TO A) (peptide)	6.94
AZIDE-ATSP-7041 (W7 TO 3,4-DICHLORO-PHE) (peptide)	8.28
AZIDE-ATSP-7041 (L1D, E5D, A8D) (peptide)	8.28
AZIDE-ATSP-7041 (S12W) (peptide)	7.32
